# Like-named read-outs stand apart in the source and are kept apart here.
# Columns and labels:
# [1] = target: T1, thrombin (Homo sapiens, UniProt P00734); conditions: E. coli, cited from earlier work
# [2] = target: T1, thrombin; test: Specific activity of recombinant hirudin (antithrombin activity), applicant's hirudin; format: biochemical
# Text: There are a number of activity assays developed to determine the quality of hirudin preparations and for use in quantitating hirudin in various biochemical and pharmacological experiments. Two of these methods have been refined herein and may be used routinely and reproducibly. The first, a chromogenic substrate assay measures the inhibition by hirudin of thrombin's ability to hydrolyze small synthetic peptide substrates. The second, a fibrin-clotting assay, measures the kinetics of clot formation, using either human plasma or purified fibrinogen as the thrombin substrate.
# In the chromogenic assay, antithrombin activity is achieved by measuring the inhibition of release of p-nitroaniline from the chromogenic substrate H-D-phenylalanyl-L-pipecolyl-L-arginine-p-nitroanilide dihydrochloride (S-2238, supplied by Kabivitrum) by thrombin in the presence of hirudin. Thrombin concentration is 2 nM (typically 0.12 NIH units/ml), and hirudin can be assayed reproducibly at an approximate concentration range of 0.3 to 1 nM, using 296 uM substrate in 50 mM Tris buffer, 100 mM NaCl, pH 7.8, and 0.1% polyethylene glycol-6000 (PEG). PEG is included to inhibit binding of thrombin to the plastic surface of the microplate or cuvette; for the same reason, reaction vessels are pretreated with 1% PEG-20,000 prior to assay.
# Hirudin inhibits the thrombin-mediated conversion of fibrinogen into a fibrin clot. […]
# [3] = Isoelectric point (pI); format: physicochemical
# [4] = system: B16/F10 cells (murine melanoma); test: Cell adhesion assay, tumor cells binding to peptide-coated wells; format: cell-based; conditions: summary of Table 2
# Text: One of the assays used to measure the activity of the laminin B1 peptide measures the binding of tumor cells containing the laminin receptor to the peptide immobilized on the surface of a culture tissue (Graf et al (1987) Cell 48:989-996). This assay is a convenient and sensitive method for routine measurement of laminin cell receptor binding and therefore a good indicator of laminin antagonist activity.
# The laminin B1 -40 peptide, along with the previously described YIGSR and CDPGYIGSR peptides, were dissolved in phosphate-buffered saline (PBS) and were coated onto Falcon #3915 polystyrene 96-well plates at 37° C. for 60 min. The peptide solutions were removed, and the wells were washed twice with PBS. Non-specific cell binding was prevented by adding 200 ul 0.1% bovine serum albumin (BSA) (Sigma #4965) in PBS to the wells and incubating for 60 min at 37° C. The BSA was removed by washing twice with PBS. […] The optical density of the solutions was read on a Molecular Devices Corporation plate reader at a wavelength between 590 nm and 405 nm. Extrapolation of optical density to number of cells bound was done by comparison of readings to a standard curve obtained by incubating various numbers of cells in microtiter plate wells for 5 h (to allow firm attachment but no significant dividing), and washing and staining as described above.
Molecule,"Sp. Act. ([1]; pMF1, lacUV5/tac, intracellular)","Sp. Act. ([1]; IU, international units, pHIR20 lam-PL, intracellular)","Sp. Act. ([1]; IU, international units, pHIR21 tac, periplasmic secretion)","Sp. Act. ([2]; AT (antithrombin units), E. coli, pNP6ΔRI-CRM/HIR, intracellular (Example 4))",specific activity ([2]; purified hirudin HV-1 standard),pI (isoelectric point) [3],binding of metastatic tumor cells compared with YIGSR or CDPGYIGSR (in words) [4]
"HV-1: hirudin variant 1, thrombin inhibitor of Hirudo medicinalis, produced from a synthetic DNA","8,500 U/mg",500 U/mg,560 U/mg,"11,300 U/mg",greater than 10 antithrombin units per ug,3.8,
Pro1 -Cys Pro Asp Gly Pro Asp Ser Gly Arg Gln Phe Ala Arg Ser Cys Tyr Gln Asp Pro Val Thr Leu Gln Leu Ala X Val Cys Asp Pro Gly Tyr Ile Gly Ser Arg Cys Asp Asp-Y [LamB1 -40],,,,,,3.65,binds metastatic tumor cells more effectively
"CTAP-III(Leu21): analog of CTAP-III in which the methionine at position 21 is replaced with leucine (protein, UniProt P02775 44-128, looked up, variant M21L, Connective tissue-activating peptide III) Connective tissue-activating …: NLAKGKEESLDSDLYAELRCLCIKTTSGIHPKNIQSLEVIGKGTHCNQVEVIATLKDGRKICLDPDAPRIKKIVQKKLAGDESAD",,,,,,approximately 7.8,
